In paper PMC9174231:

Molecular target: HA-tagged DDX6 (designed around the RecA2 region) (UniProt P26196)
Experiment: grating-coupled interferometry (GCI); Creoptix WAVEsystem; DDX6 protein immobilised on the sensor chip by amine coupling, 4E-T protein as analyte; PBS/0.01% Tween20; regeneration-free kinetics; blank without DDX6 as reference

Chain of UniProt P26196 (P26196 whole entry): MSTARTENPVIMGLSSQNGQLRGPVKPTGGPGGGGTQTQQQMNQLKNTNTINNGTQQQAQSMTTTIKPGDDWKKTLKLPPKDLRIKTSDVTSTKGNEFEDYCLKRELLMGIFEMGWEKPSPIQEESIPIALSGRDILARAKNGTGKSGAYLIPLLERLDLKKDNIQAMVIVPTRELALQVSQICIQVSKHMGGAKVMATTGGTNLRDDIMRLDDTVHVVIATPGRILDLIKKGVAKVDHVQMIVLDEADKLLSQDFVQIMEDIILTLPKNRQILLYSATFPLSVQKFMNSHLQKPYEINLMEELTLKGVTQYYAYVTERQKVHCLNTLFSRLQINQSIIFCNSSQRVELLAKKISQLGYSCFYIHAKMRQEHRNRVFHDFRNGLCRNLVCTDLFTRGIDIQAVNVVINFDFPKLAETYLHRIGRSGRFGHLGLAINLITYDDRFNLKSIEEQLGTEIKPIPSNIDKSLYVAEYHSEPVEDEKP

Kd: 774 nM | koff: 0.000278 s⁻¹ | kon: 359 M⁻¹ s⁻¹
Substance: HA-tagged 4E-T (designed around the CHD region) (from UniProt Q9NRA8 1-985) (domain or fragment)
